Measured values as given in patent US7361485.

How the values were obtained:
[1] = target: T1, modified pro-caspase-7 with an aggrecanase activation sequence, P55210
T1 chain: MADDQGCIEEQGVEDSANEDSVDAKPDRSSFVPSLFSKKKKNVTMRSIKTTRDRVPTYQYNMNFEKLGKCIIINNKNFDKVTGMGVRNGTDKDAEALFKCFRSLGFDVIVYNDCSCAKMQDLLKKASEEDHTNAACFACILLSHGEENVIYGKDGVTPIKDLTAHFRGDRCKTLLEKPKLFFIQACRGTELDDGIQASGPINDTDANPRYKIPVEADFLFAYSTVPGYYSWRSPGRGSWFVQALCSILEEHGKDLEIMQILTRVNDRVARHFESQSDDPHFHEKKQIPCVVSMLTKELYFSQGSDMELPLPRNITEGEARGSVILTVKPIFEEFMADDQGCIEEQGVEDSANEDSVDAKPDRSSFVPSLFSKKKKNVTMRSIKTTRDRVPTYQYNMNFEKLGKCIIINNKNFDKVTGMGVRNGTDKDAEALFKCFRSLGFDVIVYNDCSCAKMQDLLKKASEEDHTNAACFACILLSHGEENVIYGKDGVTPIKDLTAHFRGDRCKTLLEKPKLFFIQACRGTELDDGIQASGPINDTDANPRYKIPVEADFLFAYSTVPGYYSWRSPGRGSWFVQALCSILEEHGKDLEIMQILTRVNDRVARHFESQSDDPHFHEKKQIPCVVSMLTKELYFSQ

[2] = target: T2, modified pro-caspase-3 with an aggrecanase recognition sequence, P42574
T2 chain: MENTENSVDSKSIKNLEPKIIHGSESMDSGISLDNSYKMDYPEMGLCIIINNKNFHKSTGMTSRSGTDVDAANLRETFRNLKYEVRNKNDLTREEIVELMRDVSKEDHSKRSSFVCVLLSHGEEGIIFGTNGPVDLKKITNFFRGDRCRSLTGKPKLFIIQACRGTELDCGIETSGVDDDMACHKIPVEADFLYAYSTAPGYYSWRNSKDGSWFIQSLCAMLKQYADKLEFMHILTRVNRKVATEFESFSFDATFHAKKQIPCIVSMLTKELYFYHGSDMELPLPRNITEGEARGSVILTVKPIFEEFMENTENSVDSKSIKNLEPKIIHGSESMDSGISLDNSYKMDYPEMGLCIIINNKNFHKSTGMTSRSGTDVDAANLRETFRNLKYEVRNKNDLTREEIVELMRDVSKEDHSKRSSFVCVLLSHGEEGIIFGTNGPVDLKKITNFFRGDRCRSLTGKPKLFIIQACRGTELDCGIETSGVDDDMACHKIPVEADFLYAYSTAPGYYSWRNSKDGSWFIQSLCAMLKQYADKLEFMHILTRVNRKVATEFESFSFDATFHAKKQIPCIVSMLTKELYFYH

B1: aggrecanase (ADAMTS-4) (protein)
chain: FASLSRFVETLVVADDKMAAFHGAGLKRYLLTVMAAAAKAFKHPSIRNPVSLVVTRLVILGSGEEGPQVGPSAAQTLRSFCAWQRGLNTPEDSDPDHFDTAILFTRQDLCGVSTCDTLGMADVGTVCDPARSCAIVEDDGLQSAFTAAHELGHVFNMLHDNSKPCISLNGPLSTSRHVMAPVMAHVDPEEPWSPCSARFITDFLDNGYGHCLLDKPEAPLHLPVTFPGKDYDADRQCQLTFGPDSRHCPQLPPPCAALWCSGHLNGHAMCQTKHSPWADGTPCGPAQACMGGRCLHMDQLQDFNIPQAGGWGPWGPWGDCSRTCGGGVQFSSRDCTRPVPRNGGKYCEGRRTRFRSCNTEDCPTGSALTFREEQCAAYNHRTDLFKSFPGPMDWVPRYTGVAPQDQCKLTCQAQALGYYYVLEPRVVDGTPCSPDSSSVCVQGRCIHAGCDRIIGSKKKFDKCMVCGGDGSGCSKQSGSFRKFRYGYNNVVTIPAGATHILVRQQGNPGHRSIYLALKLPDGSYALNGEYTLMPSPTDVVLPGAVSLRYSGATAASETLSGHGPLAQPLTLQVLVAGNPQDTRLRYSFFVPRPTPSTPRPTPQDWLHRRAQILEILRRRPWAGRK
caspase activity (DEVD-pNA, A405) [1]: Upon incubation of the various pro-caspase variants with their respective target enzymes a clear increase in caspase activity was observed. | caspase activity (DEVD-pNA, A405) [2]: Upon incubation of the various pro-caspase variants with their respective target enzymes a clear increase in caspase activity was observed.
